Assay results reported in patent US20170022269A1 (AbbVie / Abbott, published 2017).

T1: Aβ(20-42) globulomer (human)
T1 construct: also called truncated Aβ(20-42) globulomer; Aβ(20-42) globular oligomer
T1 peptide: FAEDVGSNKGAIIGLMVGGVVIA

T2: Aβ(12-42) globulomer (human)
T2 construct: also called truncated Aβ(12-42) globulomer
T2 peptide: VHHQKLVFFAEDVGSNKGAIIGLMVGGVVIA

B1: monoclonal antibody 6A2 (antibody, V domains shown)
VH: QVQLQQSGAELVRPGTSVKMSCKASGYTFTTFYIHWVRQRPGQGLEWIGMIGPGSGNTYYNEMFKDKATLTVDTSSSTAYMQLSSLTSEDSAVYFCARAKSHRAAWFAYWGQGTLVTVSA
VL: DVLMTQTPLSLPVSLGDQASISCRSSQSVVQSNGNTYLEWYLQKPGQSPKLLIYKVSNRFFGVPDRFSGSRSGTDFTLKISRVEAEDLGVYYCFQGSHVPPTFGGGTKLEIKR
notes: Mouse monoclonal antibody from hybridoma; also called ML15-6A2.4B10; hybridoma ATCC PTA-7409
B2: monoclonal antibody 2F2 (antibody, V domains shown)
VH: QVQLKQSGAELVRPGTSVKMSCKASGYTFTTFYIHWVKQRPGQGLEWIGMIGPGSGNTYYNEMFKDKATLTVDTSSSTAYMQLSSLTSEDSAVYFCARAKSARAAWFAYWGQGTLVTVSA
VL: DVLMTQTPLSLPVSLGDQASISCRSSQSVVQSNGNTYLEWYLQKPGQSPKLLIYKVSNRFSGVPDRFSGSGSGTDFTLKISRVEAEDLGVYYCFQGSHVPPTFGGGTKLEIKR
notes: Mouse monoclonal antibody from hybridoma; also called ML15-2F2.3E12; hybridoma ATCC PTA-7408
B3: monoclonal antibody 10F11 (antibody, V domains shown)
VH: QVQLQQSGPELVKPGASVKMSCKASGYTFTSYVMHWVKQRPGQGLEWIGYIYPYNDGTKYNEKFKGKATLTSDKSSSTVYMELSSLTSEDSTVYYCTVEGATWDGYFDVWGTGTTVTVSS
VL: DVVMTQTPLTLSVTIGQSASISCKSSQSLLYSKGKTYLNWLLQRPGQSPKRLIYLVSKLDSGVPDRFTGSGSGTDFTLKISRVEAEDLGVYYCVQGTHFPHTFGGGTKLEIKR
notes: Mouse monoclonal antibody from hybridoma; also called ML15-10F11.3D9; hybridoma ATCC PTA-7239
B4: monoclonal antibody 4D10 (antibody, V domains shown)
VH: QVQLKQSGPSLIQPSQSLSITCTVSGFSLTSYGVHWVRQSPGKGLEWLGVIWRGGRIDYNAAFMSRLSITKDNSKSQVFFKMNSLQADDTAIYYCARNSDVWGTGTTVTVSS
VL: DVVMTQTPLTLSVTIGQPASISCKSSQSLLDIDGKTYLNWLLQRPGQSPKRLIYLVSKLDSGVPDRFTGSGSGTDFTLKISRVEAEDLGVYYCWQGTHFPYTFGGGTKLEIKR
notes: Mouse monoclonal antibody from hybridoma; also called ML13-4D10.3F3; hybridoma ATCC PTA-7405
B5: monoclonal antibody 7C6 (antibody, V domains shown)
VH: EVKLVESGGGLVKPGGSLKLSCAASGFTFSSYAMSWVRQTPAKRLEWVASIHNRGTIFYLDSVKGRFTISRDNVRNTLYLQMSSLRSEDTAIYYCTRGRSNSYAMDYWGQGTSVTVSS
VL: DVLVTQSPLSLPVRLGDQASISCRSTQTLVHRNGDTYLEWYLQKPGQSPKSLIYKVSNRFSGVPDRFSGSGSGTDFTLKISRVEAEDLGVYYCFQGSHVPYTFGGGTKLEIKR
notes: Mouse monoclonal antibody from hybridoma; also called ML13-7C6.1D4.4A9.5G8; hybridoma ATCC PTA-7240

Experiments:
sAPPα (Sigma) [1] = target: T3, sAPPα (Sigma) (UniProt P05067-4 18-612, limits assumed); experiment: dot blot densitometry, antibody 0.2 µg/ml; column sAPPα
T3 construct: Bought protein; also called Sigma cat. no; S9564
Experimental: (§1) Dot blot procedure: [0556] 1) 1 μl each of the different Aβ-standards (in their 5 serial dilutions) were dotted onto the nitrocellulose membrane in a distance of approximately 1 cm from each other. [0557] 2) The Aβ-standards dots were allowed to dry on the nitrocellulose membrane on air for at least 10 min at room temperature (RT)(=dot blot) [0558] 3) Blocking: [0559] The dot blot was incubated with 30 ml 5% low fat milk in TBS for 1.5 h at RT. [0560] 4) Washing: [0561] The blocking solution was discarded and the dot blot was incubated under shaking with 20 ml TTBS for 10 min at RT. [0562] 5) Antibody solution I: [0563] The washing buffer was discarded and the dot blot was incubated with antibody solution I for 2 h at RT [0564] 6) Washing: [0565] The antibody solution I was discarded and the dot blot was incubated under shaking with 20 ml TTBS for 10 min at RT. The washing solution was discarded and the dot blot was incubated under shaking with 20 ml TTBS for 10 min at RT. The washing solution was discarded and the dot blot was incubated under shaking with 20 ml TBS for 10 min at RT. [0566] 7) Antibody solution II: [0567] The washing buffer was discarded and the dot blot was incubated with antibody solution II overnight at RT [0568] 8) Washing: [0569] The antibody solution II was discarded and the dot blot was incubated under shaking with 20 ml TTBS for 10 min at RT. The washing solution was discarded and the dot blot was incubated under shaking with 20 ml TTBS for 10 min at RT. The washing solution was discarded and the dot blot was incubated under shaking with 20 ml TBS for 10 min at RT. [0570] 9) Development: [0571] The washing solution was discarded. The dot blot was developed with 10 ml BM Blue POD Substrate for 10 min. The development was stopped by intense washing of the dot blot with H₂O. Quantitative evaluation was done using a densitometric analysis (GS800 densitometer (BioRad) and software package Quantity one, Version […] (BioRad)) of the dot-intensity. […] This threshold value was determined for every dot-blot independently. The calculated value indicates the relation between recognition of Aβ(20-42) globulomer and the respective Aβ form for the antibody given

sAPPα (Sigma) [2] = target: T3, sAPPα (Sigma); experiment: dot blot on nitrocellulose
Experimental: as §1

Aβ(20-42) globulomer = target: T1, Aβ(20-42) globulomer; experiment: dot blot densitometry, antibody 0.2 µg/ml; column Aβ(20-42) globulomer (reference)
Experimental: as §1

Aβ(12-42) globulomer [3] = target: T2, Aβ(12-42) globulomer; experiment: dot blot, antibody 0.2 µg/ml
Experimental: Dot blot procedure: [0556] 1) 1 μl each of the different Aβ-standards (in their 5 serial dilutions) were dotted onto the nitrocellulose membrane in a distance of approximately 1 cm from each other. [0557] 2) The Aβ-standards dots were allowed to dry on the nitrocellulose membrane on air for at least 10 min at room temperature (RT)(=dot blot) [0558] 3) Blocking: [0559] The dot blot was incubated with 30 ml 5% low fat milk in TBS for 1.5 h at RT. [0560] 4) Washing: [0561] The blocking solution was discarded and the dot blot was incubated under shaking with 20 ml TTBS for 10 min at RT. [0562] 5) Antibody solution I: [0563] The washing buffer was discarded and the dot blot was incubated with antibody solution I for 2 h at RT [0564] 6) Washing: [0565] The antibody solution I was discarded and the dot blot was incubated under shaking with 20 ml TTBS for 10 min at RT. The washing solution was discarded and the dot blot was incubated under shaking with 20 ml TTBS for 10 min at RT. […] Quantitative evaluation was done using a densitometric analysis (GS800 densitometer (BioRad) and software package Quantity one, Version […] (BioRad)) of the dot-intensity. […] This threshold value was determined for every dot-blot independently. The calculated value indicates the relation between recognition of Aβ(20-42) globulomer and the respective Aβ form for the antibody given

Aβ(1-40) monomer [4] = target: T4, Aβ(1-40) monomer (human); experiment: dot blot densitometry, antibody 0.2 µg/ml; column Aβ(1-40) monomer, 0.1% NH4OH
T4 construct: also called monomeric Aβ(1-40); Aβ(1-40) monomer, 0.1% NH4OH
Experimental: as §1

Aβ(1-40) monomer [5] = target: T4, Aβ(1-40) monomer; experiment: dot blot densitometry, antibody 0.2 µg/ml; column Aβ(1-40) monomer, 0.1% NaOH
Experimental: as §1

Aβ(1-40) monomer [6] = target: T4, Aβ(1-40) monomer; experiment: dot blot on nitrocellulose
Experimental: as §1

Aβ(12-42) globulomer [7] = target: T2, Aβ(12-42) globulomer; experiment: dot blot densitometry, antibody 0.2 µg/ml; column Aβ(12-42) globulomer
Experimental: as §1

Aβ(12-42) globulomer [8] = target: T2, Aβ(12-42) globulomer; experiment: dot blot on nitrocellulose
Experimental: as §1

T3 sequence (P05067 other isoform, or with tags, fused parts or gaps limits assumed): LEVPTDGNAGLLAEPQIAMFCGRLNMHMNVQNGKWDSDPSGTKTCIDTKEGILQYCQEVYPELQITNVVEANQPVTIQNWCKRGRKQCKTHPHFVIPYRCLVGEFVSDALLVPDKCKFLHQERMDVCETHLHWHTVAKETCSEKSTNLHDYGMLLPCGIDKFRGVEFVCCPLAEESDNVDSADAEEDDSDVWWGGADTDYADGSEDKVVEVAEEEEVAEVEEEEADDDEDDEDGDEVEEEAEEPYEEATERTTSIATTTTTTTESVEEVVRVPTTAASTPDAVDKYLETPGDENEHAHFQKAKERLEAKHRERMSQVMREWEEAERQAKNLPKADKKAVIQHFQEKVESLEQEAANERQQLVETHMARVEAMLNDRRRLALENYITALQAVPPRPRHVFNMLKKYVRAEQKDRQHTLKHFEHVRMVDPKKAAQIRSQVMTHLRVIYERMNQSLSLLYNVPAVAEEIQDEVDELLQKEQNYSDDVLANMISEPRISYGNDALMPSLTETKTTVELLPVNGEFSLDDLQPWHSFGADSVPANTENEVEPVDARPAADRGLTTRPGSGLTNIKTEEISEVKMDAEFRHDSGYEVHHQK
T4 sequence (peptide, as listed by the source): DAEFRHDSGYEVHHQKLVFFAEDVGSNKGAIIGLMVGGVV

Binder	relation between recognition of Aβ(20-42) globulomer and the respective Aβ form (sAPPα (Sigma) [1])	binding result (sAPPα (Sigma) [2])	relation between recognition of Aβ(20-42) globulomer and the respective Aβ form (Aβ(20-42) globulomer)	binding result (Aβ(12-42) globulomer [3])	relation between recognition of Aβ(20-42) globulomer and the respective Aβ form (Aβ(1-40) monomer [4])	relation between recognition of Aβ(20-42) globulomer and the respective Aβ form (Aβ(1-40) monomer [5])	binding result (Aβ(1-40) monomer [6])	relation between recognition of Aβ(20-42) globulomer and the respective Aβ form (Aβ(12-42) globulomer [7])	binding result (Aβ(12-42) globulomer [8])
B1	> 1000	no binding (tested: antibody 0.2 µg/ml; first dot 1 pmol)	–	–	–	–	–	–	–
B2	> 100	no binding (tested: antibody 0.2 µg/ml; first dot 1 pmol)	1	binds	> 10000	> 10000	no binding	–	–
B3	> 1000	no binding (tested: antibody 0.2 µg/ml; first dot 1 pmol)	1	–	–	–	–	12	–
B4	> 100	no binding (tested: antibody 0.2 µg/ml; first dot 1 pmol)	1	–	–	–	no binding	29	–
B5	> 1000	no binding (tested: antibody 0.2 µg/ml; first dot 1 pmol)	1	–	> 100000	> 100000	no binding	> 100000	no binding
